Results reported in patent US20230173098A1, “NANOPARTICLE COMPLEX FOR ORAL ADMINISTRATION AND USES THEREOF” (IUCF-HYU (Industry-University Cooperation Foundation …, priority 2021, published 2023).

Experiments:
[1] = PTT efficiency and photothermal heating profile under 532 nm PTT laser in vials; type: physicochemical
[2] = tested on: human umbilical vein endothelial cells (HUVECs); assay: Cytotoxicity (EZ-Cytox, TEM morphology) in vascular endothelial cells; type: cell-based; details: gold equivalent 10 μM, 24 hours
Procedure: (§1) Specifically, human umbilical vein endothelial cells (HUVECs) and small intestine endothelial cells (Caco-2) were seeded in 96-well plates at a seeding density of 5×10^3 cells for each well and incubated for 24 hours in a CO2 incubator. Next, AuNP, Ce6-AuNP and Lf-PEG-AuNP (gold equivalent concentration of 10 μM) were applied for 24 hours. Next, after washing with PBS buffer, wells were treated with a culture medium containing EZ-Cytox at 37° C. and 5% CO2 for 4 hours. In this case, the absorbance of the medium was measured with a micro-well plate reader at a wavelength of 450 nm, and the results are illustrated in FIGS. 16, 17A and 17B.

[3] = tested on: small intestine endothelial cells (Caco-2); assay: Cytotoxicity (EZ-Cytox, TEM morphology) in small intestine endothelial cells; type: cell-based, human; details: Caco-2, gold equivalent 10 μM, 24 hours
Procedure: as §1

[4] = 532 nm, 4 W/cm^2, 240 sec, gold equivalent 10 μM

B1: AuNP-Lf: PEGylated Lf-conjugated AuNP (conjugate, UniProt P02788 20-710, looked up)
Lactotransferrin: GRRRSVQWCAVSQPEATKCFQWQRNMRKVRGPPVSCIKRDSPIQCIQAIAENRADAVTLDGGFIYEAGLAPYKLRPVAAEVYGTERQPRTHYYAVAVVKKGGSFQLNELQGLKSCHTGLRRTAGWNVPIGTLRPFLNWTGPPEPIEAAVARFFSASCVPGADKGQFPNLCRLCAGTGENKCAFSSQEPYFSYSGAFKCLRDGAGDVAFIRESTVFEDLSDEAERDEYELLCPDNTRKPVDKFKDCHLARVPSHAVVARSVNGKEDAIWNLLRQAQEKFGKDKSPKFQLFGSPSGQKDLLFKDSAIGFSRVPPRIDSGLYLGSGYFTAIQNLRKSEEEVAARRARVVWCAVGEQELRKCNQWSGLSEGSVTCSSASTTEDCIALVLKGEADAMSLDGGYVYTAGKCGLVPVLAENYKSQQSSDPDPNCVDRPVEGYLAVAVVRRSDTSLTWNSVKGKKSCHTAVDRTAGWNIPMGLLFNQTGSCKFDEYFSQSCAPGSDPRSNLCALCIGDEQGENKCVPNSNERYYGYTGAFRCLAENAGDVAFVKDVTVLQNTDGNNNEAWAKDLKLADFALLCLDGKRKPVTEARSCHLAMAPNHAVVSRMDKVERLKQVLLHQQAKFGRNGSDCPDKFCLFQSETKNLLFNDNTECLARLHGKTTYEKYLGPQYVAGITNLKKCSTSPLLEACEFLRK
modifications: PEGylated gold nanoparticle conjugate
With B1 the “PTT efficiency / heat generation (in words)” value ([1]; 532 nm PTT laser, 4 W/cm^2) was “higher PTT efficiency”, the “Maximum temperature (Tmax)” value [1, 4] was 56.3 ± 0.5 °C and the “PTT efficiency (Tmax − T0)” value [1, 4] was 29.6 ± 0.2 °C. The “cytotoxicity and morphological changes” value [2] was “not detected” and the “cytotoxicity and morphological changes” value [3] was “not detected”.
